This test addresses C3b C3b (Homo sapiens, UniProt P01024). The experiment in a line: SPR. On the technique in general: SPR reads the build-up and loss of mass on a sensor chip optically.

Our source for the Kd values is paper PMC7417313 (2020).

C3b C3b, sequence (P01024 566-670): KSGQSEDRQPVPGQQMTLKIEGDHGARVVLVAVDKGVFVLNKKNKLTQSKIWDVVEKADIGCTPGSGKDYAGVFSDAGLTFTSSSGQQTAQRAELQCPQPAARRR

B1: Factor H (protein)
chain: EDCNELPPRRNTEILTGSWSDQTYPEGTQAIYKCRPGYRSLGNVIMVCRKGEWVALNPLRKCQKRPCGHPGDTPFGTFTLTGGNVFEYGVKAVYTCNEGYQLLGEINYRECDTDGWTNDIPICEVVKCLPVTAPENGKIVSSAMEPDREYHFGQAVRFVCNSGYKIEGDEEMHCSDDGFWSKEKPKCVEISCKSPDVINGSPISQKIIYKENERFQYKCNMGYEYSERGDAVCTESGWRPLPSCEEKSCDNPYIPNGDYSPLRIKHRTGDEITYQCRNGFYPATRGNTAKCTSTGWIPAPRCTLKPCDYPDIKHGGLYHENMRRPYFPVAVGKYYSYYCDEHFETPSGSYWDHIHCTQDGWSPAVPCLRKCYFPYLENGYNQNYGRKFVQGKSIDVACHPGYALPKAQTTVTCMENGWSPTPRCIRVKTCSKSSIDIENGFISESQYTYALKEKAKYQCKLGYVTADGETSGSITCGKDGWSAQPTCIKSCDIPVFMNARTKNDFTWFKLNDTLDYECHDGYESNTGSTTGSIVCGYNGWSDLPICYERECELPKIDVHLVPDRKKDQYKVGEVLKFSCKPGFTIVGPNSVQCYHFGLSPDLPICKEQVQSCGPPPELLNGNVKEKTKEEYGHSEVVEYYCNPRFLMKGPNKIQCVDGEWTTLPVCIVEESTCGDIPELEHGWAQLSSPPYYYGDSVEFNCSESFTMIGHRSITCIHGVWTQLPQCVAIDKLKKCKSSNLIILEEHLKNKKEFDHNSNIRYRCRGKEGWIHTVCINGRWDPEVNCSMAQIQLCPPPPQIPNSHNMTTTLNYRDGEKVSVLCQENYLIQEGEEITCKDGRWQSIPLCVEKIPCSQPPQIEHGTINSSRSSQESYAHGTKLSYTCEGGFRISEENETTCYMGKWSSPPQCEGLPCKSPPEISHGVVAHMSDSYQYGEEVTYKCFEGFGIDGPAIAKCLGEKWSHPPSCIKTDCLSLPSFENAIPMGEKKDVYKAGEQVTYTCATYYKMDGASNVTCINSRWTGRPTCRDTSCVNPPTVQNAYIVSRQMSKYPSGERVRYQCRSPYEMFGDEEVMCLNGNWTEPPQCKDSTGKCGPPPPIDNGDITSFPLSVYAPASSVEYQCQNLYQLEGNKRITCRNGQWSEPPKCLHPCVISREIMENYNIALRWTAKQKLYSRTGESVEFVCKRGYRLSSRSHTLRTTCWDGKLEYPTCAKR
Consider B1, for which the Kd (as a rule, a measure of binding affinity in units of concentration) turned out to be 100 nM.
